Results from the Immune Epitope Database (IEDB).

Assays:
[1] = biological target: HLA-B*40:01; assay: IEDB peptide-MHC binding, purified MHC/competitive/fluorescence; filed as Kd, often an IC50 or EC50 that approximates it; ≥ and ≤ were set here for values at or beyond the usual limits of such assays; settings: source organism: Escherichia coli 536
[2] = biological target: HLA-B*39:01; assay: as above; settings: source organism: Escherichia coli 536
[3] = biological target: HLA-A*01:01; assay: IEDB peptide-MHC binding, purified MHC/competitive/fluorescence; ≥ and ≤ were set here for values at or beyond the usual limits of such assays
[4] = biological target: HLA-B*15:01; assay: IEDB peptide-MHC binding, purified MHC/competitive/fluorescence; filed as Kd, often an IC50 or EC50 that approximates it; ≥ and ≤ were set here for values at or beyond the usual limits of such assays; settings: source organism: Homo sapiens
[5] = biological target: HLA-A*02:01; assay: as above
[6] = biological target: HLA-B*18:01; assay: as above; settings: source organism: Homo sapiens
[7] = biological target: HLA-B*51:01; assay: as above; settings: source organism: Homo sapiens
[8] = biological target: HLA-B*07:02; assay: IEDB peptide-MHC binding, purified MHC/direct/fluorescence; filed as Kd, often an IC50 or EC50 that approximates it; ≥ and ≤ were set here for values at or beyond the usual limits of such assays; settings: source organism: Macaca fascicularis
[9] = biological target: HLA-C*12:03; assay: as above
[10] = biological target: HLA-B*08:01; assay: IEDB peptide-MHC binding, purified MHC/competitive/fluorescence; filed as Kd, often an IC50 or EC50 that approximates it; ≥ and ≤ were set here for values at or beyond the usual limits of such assays; settings: source organism: Yersinia pestis Nepal516
[11] = biological target: HLA-C*14:02; assay: IEDB peptide-MHC binding, purified MHC/direct/fluorescence; filed as Kd, often an IC50 or EC50 that approximates it; ≥ and ≤ were set here for values at or beyond the usual limits of such assays; settings: source organism: Yersinia pestis Nepal516
[12] = biological target: HLA-C*03:03; assay: as above
[13] = biological target: HLA-C*06:02; assay: as above; settings: source organism: Yersinia pestis Nepal516
[14] = biological target: HLA-C*15:02; assay: as above; settings: source organism: Yersinia pestis Nepal516
[15] = biological target: HLA-C*05:01; assay: as above; settings: source organism: Yersinia pestis Nepal516
[16] = biological target: HLA-B*15:01; assay: IEDB peptide-MHC binding, purified MHC/competitive/fluorescence; ≥ and ≤ were set here for values at or beyond the usual limits of such assays; settings: source organism: Vaccinia virus Copenhagen
[17] = biological target: HLA-A*03:01; assay: IEDB peptide-MHC binding, purified MHC/competitive/radioactivity; filed as Kd, often an IC50 or EC50 that approximates it; ≥ and ≤ were set here for values at or beyond the usual limits of such assays; settings: source organism: Vaccinia virus WR
[18] = biological target: HLA-A*31:01; assay: as above; settings: source organism: Vaccinia virus WR
[19] = biological target: HLA-A*33:01; assay: as above; settings: source organism: Vaccinia virus WR
[20] = biological target: HLA-A*68:01; assay: as above; settings: source organism: Vaccinia virus WR
[21] = biological target: HLA-A*11:01; assay: as above; settings: source organism: Vaccinia virus WR
[22] = biological target: HLA-A*26:01; assay: IEDB peptide-MHC binding, purified MHC/competitive/fluorescence; filed as Kd, often an IC50 or EC50 that approximates it; ≥ and ≤ were set here for values at or beyond the usual limits of such assays; settings: source organism: Escherichia coli APEC O1
[23] = biological target: HLA-B*58:01; assay: as above; settings: source organism: Escherichia coli APEC O1
[24] = biological target: HLA-A*01:01; assay: as above; settings: source organism: Escherichia coli APEC O1
[25] = biological target: HLA-C*08:02; assay: IEDB peptide-MHC binding, purified MHC/direct/fluorescence; filed as Kd, often an IC50 or EC50 that approximates it; ≥ and ≤ were set here for values at or beyond the usual limits of such assays
[26] = biological target: HLA-A*23:01; assay: IEDB peptide-MHC binding, purified MHC/competitive/radioactivity; filed as Kd, often an IC50 or EC50 that approximates it; ≥ and ≤ were set here for values at or beyond the usual limits of such assays; settings: source organism: SARS coronavirus Tor2
[27] = biological target: HLA-A*24:02; assay: as above; settings: source organism: SARS coronavirus Tor2
[28] = biological target: HLA-A*30:02; assay: as above; settings: source organism: SARS coronavirus Tor2
[29] = biological target: HLA-A*29:02; assay: as above; settings: source organism: SARS coronavirus Tor2
[30] = biological target: HLA-B*40:01; assay: IEDB peptide-MHC binding, purified MHC/direct/fluorescence; filed as Kd, often an IC50 or EC50 that approximates it; ≥ and ≤ were set here for values at or beyond the usual limits of such assays; settings: source organism: SARS-CoV1
[31] = biological target: HLA-B*15:01; assay: as above
[32] = biological target: HLA-A*26:01; assay: as above
[33] = biological target: HLA-B*58:01; assay: as above; settings: source organism: SARS-CoV1
[34] = biological target: HLA-A*01:01; assay: as above; settings: source organism: SARS-CoV1
[35] = biological target: HLA-B*53:01; assay: IEDB peptide-MHC binding, purified MHC/competitive/radioactivity; filed as Kd, often an IC50 or EC50 that approximates it; ≥ and ≤ were set here for values at or beyond the usual limits of such assays; settings: source organism: Vaccinia virus WR
[36] = biological target: HLA-B*35:01; assay: as above; settings: source organism: Vaccinia virus WR
[37] = biological target: HLA-B*07:02; assay: as above; settings: source organism: Vaccinia virus WR
[38] = biological target: HLA-B*54:01; assay: as above; settings: source organism: Vaccinia virus WR
[39] = biological target: HLA-B*51:01; assay: as above; settings: source organism: Vaccinia virus WR
[40] = biological target: HLA-A*03:01; assay: IEDB peptide-MHC binding, purified MHC/direct/fluorescence; filed as Kd, often an IC50 or EC50 that approximates it; ≥ and ≤ were set here for values at or beyond the usual limits of such assays; settings: source organism: Vibrio cholerae O1 biovar El Tor
[41] = biological target: HLA-A*02:19; assay: as above; settings: source organism: Vibrio cholerae O1 biovar El Tor
[42] = biological target: HLA-B*27:03; assay: as above; settings: source organism: Vibrio cholerae O1 biovar El Tor
[43] = biological target: HLA-B*46:01; assay: as above; settings: source organism: Vibrio cholerae O1 biovar El Tor
[44] = biological target: HLA-B*18:01; assay: as above; settings: source organism: Vibrio cholerae O1 biovar El Tor
[45] = biological target: HLA-B*51:01; assay: as above; settings: source organism: Vibrio cholerae O1 biovar El Tor
[46] = source organism: Vaccinia virus Copenhagen
[47] = source organism: Vibrio cholerae B33
[48] = source organism: Vibrio cholerae O1 biovar El Tor

With EEQQSMLAL the Kd [1] was 8.3 nM and the Kd [2] was 27 nM.

SSDPGTNTT showed an IC50 ([3]; source organism: Zaire ebolavirus) of at least 162000 nM.

FAAPHRGVA showed a Kd [4] of at least 20000 nM, a Kd ([5]; source organism: Homo sapiens) of at least 20000 nM and a Kd [6] of at least 20000 nM. For the same sequence, the Kd [7] was at least 20000 nM, the Kd [8] was 3.1 nM and the Kd ([9]; source organism: Homo sapiens) was at most 1 nM.

Sequence YVIKKSSPL has a Kd [10] of 196 nM, a Kd [11] of 163 nM and a Kd ([12]; source organism: Yersinia pestis Nepal516) of 2 nM. It also gave a Kd [13] of at least 20000 nM, a Kd [14] of 3950 nM and a Kd [15] of at least 20000 nM.

With YVTLNASQY the IC50 [16] was 8060 nM, the IC50 [3, 46] was 17100 nM and the Kd [17] was 4770 nM. For the same sequence, the Kd [18] was at least 51400 nM, the Kd [19] was at least 77700 nM and the Kd [20] was 10.7 nM. For the same sequence, the Kd [21] was 1120 nM.

YTTDVNQLY was tested, and the Kd [22] was 16 nM, the Kd [23] was 36 nM and the Kd [24] was 5.1 nM. For the same sequence, the Kd ([25]; source organism: Escherichia coli APEC O1) was 1010 nM.

With FADINGKLY the Kd [26] was at least 77800 nM, the Kd [27] was at least 77600 nM and the Kd [28] was 1600 nM. For the same sequence, the Kd [29] was 17 nM, the Kd [30] was at least 71300 nM and the Kd ([31]; source organism: SARS-CoV1) was 3140 nM. The Kd ([25]; source organism: SARS-CoV1) was at most 1 nM, the Kd ([32]; source organism: SARS-CoV1) was 562 nM and the Kd [33] was 2250 nM. The Kd [34] was 191 nM.

With RVYEALYYV the Kd [17] was 717 nM, the Kd [18] was 13.7 nM and the Kd [35] was at least 78200 nM. The Kd [36] was at least 77400 nM, the Kd [19] was at least 77700 nM and the Kd [20] was at least 77700 nM. It also gave a Kd [21] of 80.2 nM, a Kd [37] of at least 53800 nM and a Kd [38] of 6410 nM. The Kd [39] was at least 67800 nM, the Kd [5, 46] was 0.8 nM and the Kd [12, 46] was 1240 nM. It also gave a Kd [25, 46] of at least 20000 nM and a Kd [9, 46] of 26 nM.

FATPAFFLI showed a Kd [40] of at least 20000 nM, a Kd [41] of at least 20000 nM and a Kd [12, 47] of at most 1 nM. It also gave a Kd [31, 48] of at least 20000 nM, a Kd [42] of at least 20000 nM and a Kd [43] of at least 20000 nM. It also gave a Kd [25, 47] of 198 nM, a Kd [44] of at least 20000 nM and a Kd [45] of 859 nM. It also gave a Kd [32, 48] of at least 20000 nM.
